In paper PMC8234983, “Unravelling the Complex Denaturant and Thermal-Induced Unfolding Equilibria of Human Phenylalanine Hydroxylase” (International Journal of Molecular Sciences, 2021):

B1: full-length human phenylalanine hydroxylase (PAHt, Met1-Lys452) (enzyme, UniProt P00439 1-452, looked up)
chain: MSTAVLENPGLGRKLSDFGQETSYIEDNCNQNGAISLIFSLKEEVGALAKVLRLFEENDVNLTHIESRPSRLKKDEYEFFTHLDKRSLPALTNIIKILRHDIGATVHELSRDKKKDTVPWFPRTIQELDRFANQILSYGAELDADHPGFKDPVYRARRKQFADIAYNYRHGQPIPRVEYMEEEKKTWGTVFKTLKSLYKTHACYEYNHIFPLLEKYCGFHEDNIPQLEDVSQFLQTCTGFRLRPVAGLLSSRDFLGGLAFRVFHCTQYIRHGSKPMYTPEPDICHELLGHVPLFSDRSFAQFSQEIGLASLGAPDEYIEKLATIYWFTVEFGLCKQGDSIKAYGAGLLSSFGELQYCLSEKPKLLPLELEKTAIQNYTVTEFQPLYYVAESFNDAKEKVRNFAATIPRPFSVRYDPYTQRIEVLDNTQQLKILADSINSEIGILCSALQKIK
notes: human phenylalanine hydroxylase (EC 1.14.16.1), full-length construction, residues Met 1-Lys 452; No Fe(II) was added to the recombinant protein; also called PAHt(1-452); full-length PAH
B2: double truncated human phenylalanine hydroxylase (PAHd, Gly103-Thr427; ΔN1-102/ΔC428-452) (domain or fragment, UniProt P00439 103-427, looked up)
chain: GATVHELSRDKKKDTVPWFPRTIQELDRFANQILSYGAELDADHPGFKDPVYRARRKQFADIAYNYRHGQPIPRVEYMEEEKKTWGTVFKTLKSLYKTHACYEYNHIFPLLEKYCGFHEDNIPQLEDVSQFLQTCTGFRLRPVAGLLSSRDFLGGLAFRVFHCTQYIRHGSKPMYTPEPDICHELLGHVPLFSDRSFAQFSQEIGLASLGAPDEYIEKLATIYWFTVEFGLCKQGDSIKAYGAGLLSSFGELQYCLSEKPKLLPLELEKTAIQNYTVTEFQPLYYVAESFNDAKEKVRNFAATIPRPFSVRYDPYTQRIEVLDNT
notes: lacks most of the regulatory and multimerization domains; essentially the catalytic domain; Residues 103-117 are missing in the 1J8T PDB file; also called PAHd(103-427); truncated PAHd

Key:
P00439 [1] = assay: AUC; sedimentation velocity, 25 °C, 45,000 rpm, 8 µM subunit, incubated overnight in 5.4 M urea; c(s) analysis
[2] = target: the molecule itself; assay: AUC; sedimentation velocity, 25 °C, 45,000 rpm, 8 µM subunit, 0 M urea (native conditions); c(s) analysis
P00439 [3] = assay: AUC; sedimentation velocity, 25 °C, 45,000 rpm, 8 µM subunit, incubated overnight in 7.4 M urea; c(s) analysis
P00439 [4] = assay: AUC; sedimentation velocity, 25 °C, 45,000 rpm, 8 µM subunit, 0 M urea (native conditions); c(s) analysis

Row | Protein | percent of total protein signal as fast-sedimenting polydisperse species (aggregates) (P00439 [1]) | stoichiometry N [2] | percent of total signal as aggregates (P00439 [3]) | percent of total signal as aggregates (P00439 [4])
1 | B1 | multiple species of fast sedimentation at a broad range of 10.2–27.9 S representing 98% of the total protein signal | 4 | The rest of the protein signal at this high urea concentration, 13%, corresponds to aggregates of fast sedimentation | aggregates (6% total)
2 | B2 | from 9.6 S to 92.4 S and accounting for 98.3% of the total protein signal | 2 | The remaining 40% of the signal are species with sedimentation coefficients from 5.4 S to 18.8 S representing aggregates | 
